Laboratory results from the DeepSol protein solubility set.

Assay: soluble on expression in E. coli; label from the status in PepcDB or PDB records

Sequence | soluble on expression in E. coli
MGSDKIHHHHHHMDLEIATVKAILTEHDLLKEIKSTKTVANTGISYDSRTVKPGYMFFCKGNFKPEYLSVARQNGATTYVSENEYPEGTGMTAIIVTNVTRAMAVLSATYYNFPQNDLFIIGITGTKGKTSSAYFAHSILNQKYPNQVALFSTIDRIVGPKPEDQFKSDLTTPESMNLFHDMRVAVDNGMKYLVMEVSSQAYLRDRVYGLKFDCGIFLNITPDHIGRNEHKDFEDYLHCKLQLMVNSKRCIIDADTDRFDDVFGAAKATTDPEQIYLFSADVENGGVDFLIQDEEDDLTSNRFTLVESSSKAEAFHVAGDYDLNVAGDYNQSNATAAIIAAALADVTYQDAVLPLKSIVIPGRMEHLNVPGHGVVFVDYAHNYASLHALLKFLKHQYHDGKVIVVVGSPGDKGISRRAGFGQALSEQADIAYLTTDDPAFEDPEQIIQQIMDNIKPGTVEVRQVLDRHDAIEQAIMNSSEKDVVVLAGKGEDPYQKVGGVDTPWPTDMGVAEEVKRGLS | not soluble
MSLSQLDKTCVIIGASHAGVNCAFALRKEGWQGGIVLYDADPSLPYHRPPLSKAYLTSDAGIEKYLLKSAESYEKDNITLRMGIQVSAIDRTHKILTLNDGNTRSYDKLVIATGARPIIPPTKGIKTAKNLYPLRNAADVQNIRQALESNENKRVVIVGAGYIGLEIAASLKNRGAQVTVLEREDRVLARVTAPEMSAYFQQLHVSQGVEIVTNKNVVSIAPRNGFNTITCSDGTQYDADVIVMGVGIRVNLELAEDAGLNISNGICVNAAGQTNDEDIYAIGDCTLHYNPHYNRHIRLESVQNAVDQAKVTAAAICGKEVAYNAIPWFWSDQYDVKLQIVGLSSGYNELLIRREDDGRKFSSWYFKDDELLAVDAINNAKAYMIATKFIKERRKVDKIKLTDASVALSPLNLSAESHEGHHHHHH | soluble
MAVSLFKQLQIVWDYHLVNQEIRKSDAIFVLCSYDLRVAEHAAQLYLDGYAPLLIFSGAQGRATEGLFTLSEAETFANVAKDMGVPSSAIIVETKATNTGENIFFTQALLKERNISVSSLILVQKPYMERRLLATFLKNWNDIEFCISSPNISFINYPTDEITFDHIASIILGELHRLKVYPTLGYQEAQEIPDEVWQAFENLTQLGFDEYLLTNDNLEHHHHHH | not soluble
MGSDKIHHHHHHMCRLIGYLGNAIPLDELLYKQEHSLYQQSYSPLELKSGVVCADGVGVGWYDQVGKPFIYRNTIPMWNDPNLEELSNYVQSTCTVGYARLAGIGESLDISNCQPFRSDQLLFVHNGEISNFQQTLYRPIRESLSDATYRLIKGTTDSEHIFALLVQMWQSSPDSTLFWALGATLEKLTELASEYNTSFSANLIVSDGEAIAAIRYAYRTQAPTLYWSYDALKHPNQVIVASEPLSNNQNWTAFDEQSMLFFQAQSLEPRISLLKKFSAIGV | not soluble
MKVLCYGVRDVELPIFEACNKEFGYDIKCVPDYLNTKETAEMAAGFDAVILRGNCFANKQNLDIYKKLGVKYILTRTAGTDHIDKEYAKELGFPMAFVPRYSPNAIAELAVTQAMMLLRHTAYTTSRTAKKNFKVDAFMFSKEVRNCTVGVVGLGRIGRVAAQIFHGMGATVIGEDVFEIKGIEDYCTQVSLDEVLEKSDIITIHAPYIKENGAVVTRDFLKKMKDGAILVNCARGQLVDTEAVIEAVESGKLGGYGCDVLDGEASVFGKDLEGQKLENPLFEKLVDLYPRVLITPHLGSYTDEAVKNMVEVSYQNLKDLAETGDCPNKIK | soluble
MSTSSVRFAFRRFWQSETGPKTVHFWAPTLKWGLVFAGFSDMKRPVEKISGAQNLSLLSTALIWTRWSFVIKPRNILLASVNSFLCLTAGYQLGRIANYRIRNGDSISQLCSYILSGADESKKEITTGR | not soluble
MADILLLDNVDSFTYNLVDQLRASGHQVVIYRNQIGAEVIIERLQHMEQPVLMLSPGPGTPSEAGCMPELLQRLRGQLPIIGICLGHQAIVEAYGGQVGQAGEILHGKASAIAHDGEGMFAGMANPLPVARYHSLVGSNIPADLTVNARFGEMVMAVRDDRRRVCGFQFHPESILTTHGARLLEQTLAWALAK | soluble
GSADAEYDVVVLGGGPGGYSAAFAAADEGLKVAIVERYKTLGGVCLNVGCIPSKALLHNAAVIDEVRHLAANGIKYPEPELDIDMLRAYKDGVVSRLTGGLAGMAKSRKVDVIQGDGQFLDPHHLEVSLTAGDAYEQAAPTGEKKIVAFKNCIIAAGSRVTKLPFIPEDPRIIDSSGALALKEVPGKLLIIGGGIIGLEMGTVYSTLGSRLDVVEMMDGLMQGADRDLVKVWQKQNEYRFDNIMVNTKTVAVEPKEDGVYVTFEGANAPKEPQRYDAVLVAAGRAPNGKLISAEKAGVAVTDRGFIEVDKQMRTNVPHIYAIGDIVGQPMLAHKAVHEGHVAAENCAGHKAYFDARVIPGVAYTSPEVAWVGETELSAKASARKITKANFPWAASGRAIANGCDKPFTKLIFDAETGRIIGGGIVGPNGGDMIGEVCLAIEMGCDAADIGKTIHPHPTLGESIGMAAEVALGTCTDLPPQKK | soluble
MGSDKIHHHHHHMNDWDRLYDRAETLLSRLEGLLRADAPEPEWNAAAFRWRKTGRSGFIEPVRYPDSITFEALQSIGRQKSLVDQNTRQFVRHHPANNVLLTGARGTGKSSLVKAMLNKYAADGLRLIEVEKHHLVDLPEIVEKVYRRPERFILYCDDLSFESGEPGYKALKVVLDGSIATASENVLVYATSNRRHLMPEYRVDNQDTRHTGGEIHPSEAVEEKTSLSERFGLWISFYPFDQEQYLDIVARWLAYFGIDKMDDSIREEALRWALGRGSRNGRVAWQFARDRAGREKAGQKPADKTEFRAEQ | not soluble
MLIVGINGSPKKEGNTKYLINTVLEEAKSQGVETMVLEVGELLNSVKNPFCVVCSNPCSSICYKGTKLEEAYEILKKADAIVMGSPVYFGSVSAQLKAFFDKTRKLRSEKALYNKFACGVTVGGARFGGQETTMKALHDIMLVHGMTIVGDGYVGDDCGHHGVCAQQPADKDEFAIKRAKILGRRLVDVCKKAGA | not soluble
MLTYIILVLHLQNHVWEDVTVHNSSLPPLAIKHPECLGLLHQLERSTDVWIQHYCILKDGCLYFYASIRSTQASGGLYLQGYSVSEQTHGFEQPVIELKPSSEEFKTFYFCAENKTENQRWIAALKTSIKKWLPLDQAIQEFMSRPLEETRM | not soluble
MSLKITAVEPFILHLPLTSESISDSTHSITHWGVVGAKITTSDGIEGYGFTGTHAHLPSDRLITSCISDCYAPLLLGEDASDHSRLWTKLARYPSLQWVGRAGITHLALAAVDVALWDIKAKKAGVPLWHYLGGARTAGVEAYNTDIGWLSFTLEDLLAGSARAVEEDGFTRLKIKVGHDDPNIDIARLTAVRERVDSAVRIAIDGNGKWDLPTCQRFCAAAKDLDIYWFEEPLWYDDVTSHARLARNTSIPIALGEQLYTVDAFRSFIDAGAVAYVQPDVTRLGGITEYIQVADLALAHRLPVVPHAGEMSQVHVHLSYWHPASTILEYIPWIKDHFEEPIHVRDGVYKRPEQPGASTTPLAESFTRYGKAVKEGHHHHHH | soluble
MTPDLKTSPPPATLFSEDAEAIAKYLDESAKNGRDSGKNKSTQIRRFYDELVGWQERIGTDEQKFRDYAAFIHMLNAKAAYAQGRNLVTREFVQWLRDCIKQIDGPRTLNHFRLHFEAMIGFLKAIRG | not soluble
MLLSVPLLLGLLGLAAADPAIYFKEQFLDGDAWTNRWVESKHKSDFGKFVLSSGKFYGDLEKDKGLQTSQDARFYALSAKFEPFSNKGQTLVVQFTVKHEQNIDCGGGYVKLFPSGLDQKDMHGDSEYNIMFGPDICGPGTKKVHVIFNYKGKNVLINKDIRCKDDEFTHLYTLIVRPDNTYEVKIDNSQVESGSLEDDWDFLPPKKIKDPDAAKPEDWDERAKIDDPTDSKPEDWDKPEHIPDPDAKKPEDWDEEMDGEWEPPVIQNPEYKGEWKPRQIDNPDYKGTWIHPEIDNPEYSPDANIYAYDSFAVLGLDLWQVKSGTIFDNFLITNDEAYAEEFGNETWGVTKAAEKQMKDKQDEEQRLKEEEEDKKRKEEEEAEDKEDDDDRDEDEDEEDEKEEDEEESPGQAKDEL | soluble
MSWKFEEKSPIYAQIAQHVMMQIISQEIKSGDQLPTVREYAEIAGVNPNTMQRAFTELEREGMVYSQRTAGRFVTDDQKLIARKRRELAISELESFITNMTKMGFSHTEIIPVLTSFLKEDSQ | not soluble
MRYHIALVGRRNSGKSSLLNMLAGQQISIVSDIKGTTTDAVAKAYELQPLGPVTFYDTAGIDDEGTLGAMRVSATRRVLFRSDMALLVVDEQGLCPSDMALIDEIRQLQMPILMVFNKADICTPKAEDIAFCQNQSLPFIVVSAATGLAGKQLKQLMVELAPAEYKQEPLLAGDLYQAGDVILCVVPIDMAAPKGRLILPQVQILREALDRSAIAMVVKETELAQALSVVTPKLVISDAQAIKQVAAIVPDAVPLTTFSTLFARFKGDLAALATGADALDTLQDGDKVLISEACSHNVQEDDIGRVKLPRWINSYTGKQLEFVVTSGHDFPNDLEQYALVIHCGACMFNRNEMLRRIRECQRRQVPITNYGVAISKLQGVLPRVLTPFNRNPQQLEHHHHHH | soluble
MAKKKKKKSFNVTRPTDPPVYPVTVPILGHIIQFGKSPLGFMQECKRQLKSGIFTINIVGKRVTIVGDPHEHSRFFLPRNEVLSPREVYSFMVPVFGEGVAYAAPYPRMREQLNFLAEELTIAKFQNFVPAIQHEVRKFMAANWDKDEGEINLLEDCSTMIINTACQCLFGEDLRKRLDARRFAQLLAKMESSLIPAAVFLPILLKLPLPQSARCHEARTELQKILSEIIIARKAAAVNKDSSTSDLLSGLLSAVYRDGTPMSLHEVCGMIVAAMFAGQHTSSITTTWSMLHLMHPANVKHLEALRKEIEEFPAQLNYNNVMDEMPFAERCARESIRRDPPLLMLMRKVMADVKVGSYVVPKGDIIACSPLLSHHDEEAFPEPRRWDPERDEKVEGAFIGFGAGVHKCIGQKFGLLQVKTILATAFRSYDFQLLRDEVPDPDYHTMVVGPTASQCRVKYIRRKAAAAHHHHHHHH | soluble
MSLKYSSTTADYLVWSDAMNLIRKLAKDENYKISLLIALGCFTGLRISDILSLRWKQILDADEFTVIEKKTDKVRTIRLNPQLQHHIKECYEHINPVGINAPILISQKGTIFTVQRINIILKEVKKKYRLKIKNFSCHSLRKTFGRQVYNMNSDNAELALVKLMELFNHSSVAITKRYLGLRQEEILQTYDCLSF | not soluble
MGSDKIHHHHHHMKILFLADEESKMYWEYFKKEDFKGIDIIVSCGDLNPSYLSFLTTMVGVPLLYVHGNHDDKYNVKPPEGCICIEDEIYEYEGVRFLGLGGSNRYKPGENQYTQKEMTKRVKKLWWKLKRKNGFDVLVTHSPAKGLHDGEDTCHTGFDVFNRLIEQYKPRYFVHGHVHMSYGRQFVRLDKVGETTVINAYEKYIVEI | not soluble
MGSDKIHHHHHHMANRLNQLLKQWLSQKDTQKWVLATIIETDGSSYRKAGAMMMINDLGQYFGLLSGGCLESDIMLQARRCWDSGRNRIVEYDMREEEDLAWKLGIGCGGMVRILLQPVDEANQYLQLDSLYALLESNQTAEYCQVINDQVPLNTLKTLTLKQAAPEQAKSIEGALKKADTDRKTETQQGVFKQYLKPAPHLAVFGGGVDARPVVAIATQLGWQVTLVDPRTSYARNGHFDNSVSVVRDAIESLEQNRWLQQIDMAIIMTHNIKLDAQSLALVQKSSAKYVGMLGPIHRTDRVLDLIPTTREQLVKPLANPVGLRLGGELPESIALSMLSEAHAFIEQQNGLSISGILRQ | not soluble
